Data set [1] can be described thus: Photobleaching / photo-stability studies. The class given is physicochemical. As for the experimental part:
FIGS. 11C-11D (C) Titration of apo-SFP (20 uM) with BV IXα measured at 675 nm with λex=375 nm (green) and 630 nm (red). (D) Photo-bleaching kinetics of Sandercyanin and free-biliverdin (BV).
(§1) All experiments were performed with purified SFP samples (apo and holo forms) at pH 7.5 and room temperature. UV-Visible absorbance spectra of native and recombinant SFP were recorded from 800 to 200 nm with ultraspec 2100 pro spectrophotometer from Amersham Biosciences. CD spectra were measured on JASCO J-815 Spectropolarimeter. Steady state fluorescence, excitation, binding and photobleaching studies were monitored on Horiba Jobin Yvon Fluoromax-4 fluorimeter. Data analysis were done using Origin6 and Origin8 software. Hydrogen was exchanged with Deuterium by increasing concentrations of D2O to a standard protein concentration. Deuteriated proteins were prepared in the same buffer, incubated for 15 minutes, and monitored for spectral properties.

Data set [2] can be described thus: Fluorescence of free biliverdin in different solvent conditions. The class given is physicochemical. To be noted: increased hydrophobicity of the medium. An excerpt: FIG. 11F Effect of hydrophobicity of solvent on fluorescence spectra of biliverdin monitored at excitation wavelengths of (left) 375 nm and (right) 600 nm. Labels are biliverdin in DMSO 1150, biliverdin in acetone 1152, biliverdin in ethanol 1154, biliverdin in benzene 1156, and biliverdin in toluene 1158.
FIG. 11G Effect of viscosity of solvent (PEG 400) on fluorescence spectra of biliverdin monitored at excitation wavelengths of (left) 375 nm and (right) 600 nm. Labels are 0% PEG400 1160, 5% PEG400 1162, 10% PEG400 1164, and 15% PEG400 1166.
We performed experiments with free biliverdin in different solvents conditions, to understand the molecular basis of the observed fluorescent properties of Sandercyanin-BV complex. […] A similar trend was observed on increasing the viscosity of medium with increased polyethylene glycol and changing the pH of medium to pH 8.8-9.5.

Data set [3] relates to apoSFP. The experiment in a line: Binding of apoSFP with other tetrapyrroles monitored by fluorescence. More on the design: species or system Sander vitreus. To be noted: excitation at 375 nm and 630 nm. An excerpt: FIG. 11E Binding of apoSFP with other tetrapyrroles monitored by fluorescence on excitation at (left) 375 nm and (right) 630 nm.
To examine the specificity of Sandercyanin to bilverdin IXa, we tested other BV-like tetrapyrrol compounds: hemin, bilirubin, and esterified BV derivatives.

A short description of data set [4]: Steady state fluorescence spectra and quantum yield. The class given is physicochemical. To be noted: for Quantum yield / Ex/Em1, emission / Ex/Em1, excitation: in complex with biliverdin; for brightness relative to L135E monoSFP: glycine loop extension. As for the experimental part: as §1
Characterization of monoSFP Variants—MonoSFP variants were characterized by size-exclusion chromatography during purification of the proteins. We further characterized the spectral properties and binding-efficiencies of a few of these monoSFPs (Tables 2 and 4), and found them to be similar to wild-type SFP (FIG. 2, FIG. 3, Table 4). They have far-red to near infra-red fluorescence with large Stokes shift. […] To test this, we performed detergent (Triton X-100) assays with the monoSFPs and measured absorbance and fluorescence spectra. Further, we made attempts to extend one of the loops which encloses biliverdin in the centre of the protein. Two mutants, FH88insGG and VP95insGG, were extended with glycine residues at the 88th and 95th positions in the amino acid chain of L135E monoSFP mutant. One hypothesis was that extension would prevent photon loss due to solvent exposure of the ligand and enhance the quantum efficiency.

A short description of data set [5]: Biliverdin binding of SFP and monomeric variants (fluorescence titration, UV-visible absorbance). As to the method:
as §1
All SFP variants were expressed using E. coli BL21*(DE3) cells. […] Thus, refolded purified SFP was checked using an analytical gel filtration column for oligomerization state and biliverdin (BV) binding by UV-visible absorbance and fluorescence spectroscopy (FIGS. 1A-1D).
Characterization of monoSFP Variants—MonoSFP variants were characterized by size-exclusion chromatography during purification of the proteins. […] They have far-red to near infra-red fluorescence with large Stokes shift. […] To test this, we performed detergent (Triton X-100) assays with the monoSFPs and measured absorbance and fluorescence spectra. […]

The conditions of data set [6]: excitation at 380 nm and 630 nm, Yu et al. 2008; cited from earlier work.
Data set [7] can be described thus: UV-Visible absorbance spectra. The class given is physicochemical. As to the method: as §1, with “All experiments were performed with purified SFP samples (apo and holo forms) at pH 7.5 and room temperature.” left out

Positions count from the first letter of the chain named. Numbers in names are those of the source.

The values below come from US10962528B2, “Blue fluorescent protein monomers and uses thereof” (WISYS TECHNOLOGY FOUNDATION, INC., priority 2015, dated 2021).

With `C=CC1=C(C)/C(=C/C2=NC(=C\c3[nH]c(/C=C4\NC(=O)C(C)=C4C=C)c(C)c3CCC(=O)O)/C(CCC(=O)O)=C2C)NC1=O` [Biliverdin, Biliverdin IXα, reference compound], in data set [1], the “bleaching of free form relative to complex with Sandercyanin” value was “bleaches faster”. For the same molecule, in data set [2], the “far red fluorescence of free biliverdin” value is given as “enhanced far red fluorescence”.

As to `C=CC1=C(C)c2cc3[n-]c(cc4[n-]c(cc5nc(cc1n2)C(C)=C5C=C)c(C)c4CCC(=O)O)c(CCC(=O)O)c3C.[Cl-].[Fe+3]` [hemin], the “binding and fluorescence with Sandercyanin” value in data set [3] was “does not show binding and fluorescence”.

B1: SFP-V71E: monomeric SFP variant V71E, SEQ ID NO:2 (protein)
chain: FIKPGRCPKPAVQEDFDAARYLGVWYDIQRLPNKFQKGECATATYSLSPGEGFSVFNRERLANGTIKSVIGSAIAEDPCEPAKLQFFHENAAPVPYWVLSTDYDNYALVYSCINLGASHAAYASIVSRQPTLPEETIKKLQGTMSSFGVGVDTLLTTNQDAAYCSAMNQ
In turn, B1 displayed a Quantum yield in data set [4] of 0.003. In data set [4] (UV/blue excitation), the Ex/Em1, emission turned out to be 670 nm and the Ex/Em1, excitation was 380 nm. For the same molecule, in data set [4] (red excitation), the Ex/Em1, emission is 660 nm and the Ex/Em1, excitation turned out to be 600 nm.

B2: SFP-A137E: monomeric SFP variant A137E, SEQ ID NO:4 (protein)
chain: B1 chain with E51V, A117E
For B2, the Quantum yield in data set [4] stood at 0.003. In data set [4] (UV/blue excitation), this molecule displayed an Ex/Em1, emission of 663 nm and an Ex/Em1, excitation of 380 nm. In data set [4] (red excitation), this molecule showed an Ex/Em1, emission of 653 nm and an Ex/Em1, excitation of 580 nm.

B3: SFP-L135E: monomeric SFP variant L135E, SEQ ID NO:3 (protein)
chain: B1 chain with E51V, L115E
Molecule B3 returned a Quantum yield in data set [4] of 0.025. Moreover, the results for the Ex/Em1, emission in data set [4] (UV/blue excitation) and in data set [4] (red excitation) were 682 nm and 676 nm, respectively. Besides, the results for the Ex/Em1, excitation in data set [4] (UV/blue excitation) and in data set [4] (red excitation) were 380 nm and 600 nm, respectively.

B4: SFP-FH88insGG: L135E monoSFP extended with glycine residues at position 88, SEQ ID NO:5 (protein)
chain: MFIKPGRCPKPAVQEDFDAARYLGVWYDIQRLPNKFQKGECATATYSLSPGVGFSVFNRERLANGTIKSVIGSAIAEDPCEPAKLQFGGFHENAAPVPYWVLSTDYDNYALVYSCINEGASHAAYASIVSRQPTLPEETIKKLQGTMSSFGVGVDTLLTTNQDAAYCSAMNQ
With B4, in data set [4], the “brightness relative to L135E monoSFP” value is “did not show significantly increased brightness” and the Quantum yield came out at 0.002. In data set [4] (UV/blue excitation), this molecule had an Ex/Em1, emission of 663 nm and an Ex/Em1, excitation of 380 nm. Besides, in data set [4] (red excitation), the Ex/Em1, emission is 653 nm and the Ex/Em1, excitation was 570 nm. Moreover, the “binding to biliverdin” value in data set [5] was “retained binding to biliverdin”.

B5: SFP-VP95insGG: L135E monoSFP extended with glycine residues at position 95, SEQ ID NO:6 (protein)
chain: MFIKPGRCPKPAVQEDFDAARYLGVWYDIQRLPNKFQKGECATATYSLSPGVGFSVFNRERLANGTIKSVIGSAIAEDPCEPAKLQFFHENAAPGGVPYWVLSTDYDNYALVYSCINSFEGASHAAYASIVSRQPTLPEETIKKLQGTMSSFGVGVDTLLTTNQDAAYCSAMNQ
Take B5: in data set [4], the “brightness relative to L135E monoSFP” value was “did not show significantly increased brightness” and the Quantum yield worked out at 0.003. Besides, in data set [4] (UV/blue excitation), the Ex/Em1, emission was 657 nm and the Ex/Em1, excitation was determined as 380 nm. Moreover, in data set [4] (red excitation), the Ex/Em1, emission came to 653 nm and the Ex/Em1, excitation was 570 nm. In data set [5], the “binding to biliverdin” value is reported as “retained binding to biliverdin”.

B6: Wild-type SFP: Sandercyanin fluorescent protein from walleye Sander vitreus mucus, biliverdin-binding lipocalin tetramer; SEQ ID NO:1 (recombinant SEQ ID NO:31) (protein, listed as Sander vitreus)
chain: MNAIQVISLTLLSVLAAKAMFIKPGRCPKPAVQEDFDAARYLGVWYDIQRLPNKFQKGECATATYSLSPGVGFSVFNRERLANGTIKSVIGSAIAEDPCEPAKLQFFHENAAPVPYWVLSTDYDNYALVYSCINLGASHAAYASIVSRQPTLPEETIKKLQGTMSSFGVGVDTLLTTNQDAAYCSAMAQ
modifications: biliverdin chromophore
For B6, in data set [4], the excitation maxima was 375 nm and the Quantum yield is on record as 0.016. In data set [4] (UV/blue excitation), this molecule registered an Ex/Em1, emission of 675 nm and an Ex/Em1, excitation of 375 nm. In data set [4] (red excitation), this molecule displayed an Ex/Em1, emission of 675 nm and an Ex/Em1, excitation of 630 nm. Moreover, the “fluorescence intensity with D2O” value in data set [4] (increasing concentrations of D2O, no changes in the absorbance) is given as “increased fluorescence intensity”. In data set [1] (overnight exposure with UV or red light), the photo-stability of fluorescence entry is given as “does not bleach significantly”. Moreover, the bleaching of fluorescence result in data set [1] (walleye mucous cells and solution, several hours of excitation and emission) is “do not bleach”. For the same molecule, in data set [6], the emission maxima was 678 nm. Further, in data set [7] (phosphate buffer of pH 7.4, 375 nm), the “Molar extinction coefficient at 375 nm” value is 21,000 M^−1 cm^−1. In addition, the “Molar extinction coefficient at 630 nm” value in data set [7] (phosphate buffer of pH 7.4, 630 nm) is recorded as 13,500 M^−1 cm^−1.
